Source: US8975044B2, “Polynucleotides encoding for frizzled-binding agents and uses thereof” (OncoMed Pharmaceuticals, Inc., priority 2008, dated 2015)
pKd: −log10 of the molar value. One block for each compound: values may come before it.

Assays:
[1] = target: T1, FZD7 (Homo sapiens, UniProt O75084); assay: FACS binding to FZD-transfected HEK293 cells; set-up: plasmid DNA expressing full-length FZD1, 2, 5, 7 or 8; expressed in transfected cells; host or cells: HEK293; conditions: FACS MFI dose-response, full-length FZD in HEK293, 20 μg/ml 4-fold dilutions
Method: (§1) To measure antibody binding to FZD by flow cytometry HEK293 cells were co-transfected with FZD expression vectors and the transfection marker GFP. Twenty-four to forty-eight hours post-transfection, cells were collected in suspension and incubated on ice with anti-FZD antibodies (10 μg/ml unless otherwise indicated) or control IgG to detect background antibody binding. The cells were washed and primary antibodies detected with Fc domain-specific secondary antibodies conjugated to a fluorescent chromophore (e.g. phycoerythrin conjugated anti-human IgG). Labeled cells were then analyzed by flow cytometry to identify anti-FZD antibodies that specifically recognize cell surface expression of FZD protein. Monoclonal antibodies 18R5 and 18R8 recognized FZD on transfected cells. As shown in FIG. 1 and FIG. 2, both 18R8 and 18R5 bind to multiple FZD including FZD1, FZD2, FZD5, FZD7, and FZD8. […]
(§2) HEK293 cells were co-transfected with a plasmid DNA expressing full-length FZD1, 2, 5, 7 or 8 along with another plasmid expressing the reporter gene GFP used as a transfection marker. […] The cells were washed and bound anti-Fzd antibodies were detected with a secondary anti-human antibody conjugated to a fluorescent chromophore. Labeled cells were then detected and counted by FACS. The FACS data generated were expressed in Mean Fluorescence Intensity (MFI) units. […]

[2] = target: T2, FZD1 (Homo sapiens, UniProt Q9UP38); assay: FACS binding to FZD-transfected HEK293 cells; conditions: FACS MFI dose-response, full-length FZD in HEK293, 20 μg/ml 4-fold dilutions
T2 construct: plasmid DNA expressing full-length FZD1, 2, 5, 7 or 8; expressed in transfected cells; host or cells: HEK293
Method: as §1, §2

[3] = target: T3, FZD2 (Homo sapiens, UniProt Q14332); assay: FACS binding to FZD-transfected HEK293 cells; conditions: FACS MFI dose-response, full-length FZD in HEK293, 20 μg/ml 4-fold dilutions
T3 construct: plasmid DNA expressing full-length FZD1, 2, 5, 7 or 8; expressed in transfected cells; host or cells: HEK293
Method: as §1, §2

[4] = target: T1, FZD7; assay: Biacore affinity to recombinant Fzd Fc protein; type: binding; set-up: Fc (C); conditions: IgG antibody; Fzd Fc immobilized on CM5 Biacore chip
Method: The KDs of 18R8 and 18R5 antibodies were determined using the Biacore 2000 system from Biacore Lifescience (GE Healthcare). Specifically, purified anti-Fzd7 antibodies were serially diluted in 2-fold increments from 100 to 0.78 nM in HBS-P (0.01 M HEPES pH 7.4, 0.15 M NaCl, 0.005% v/v Surfactant P20). Each dilution was tested against recombinant Fzd Fc proteins immobilized onto a CM5 Biacore chip. The association and dissociation rates were measured and KD values determined using the Biaevaluation software program (Table 5, below).

[5] = test system: OMP-Pn4 tumors; assay: Limiting dilution assay of cancer stem cell frequency in treated OMP-Pn4 tumors; type: in vivo, NOD/SCID mice; conditions: tumors after 41 days treatment; 30-810 cells re-injected, 75 days; L-Calc
Method: Control and treated tumors from the OMP-Pn4 xenograft study described above (Example 7) were harvested at the end of 41 days treatment. The tumors were processed and dissociated into single cells. Tumor cells were then incubated with biotinylated mouse antibodies (α-mouse CD45-biotin 1:200 dilution and rat α-mouse H2 Kd-biotin 1:100 dilution, BioLegend, San Diego, Calif.) on ice for 30 min followed by addition of streptavidin-labeled magnetic beads (Invitrogen, Carlsbad, Calif.) to remove mouse cells. The remaining human cells in the suspension were collected, counted and diluted to appropriate cell doses (30, 90, 270 and 810 cells), mixed in the mixture of 1:1 (v/v) FACS buffer and Matrigel and injected subcutaneously in NOD/SCID mice (10 mice per cell dose per treatment group). Each dot in FIG. 40 represents the tumor volume of an individual mouse. The percentage of mice with detectable tumors was determined in all groups injected with anti-FZD antibody treated tumor cells and compared to the percentage of mice with detectable tumors in the controls. For example, the number of mice injected with 810 control-treated tumor cells that have detectable tumors was determined and compared to the number of mice injected with 810 FZD-antibody treated tumor cells that have detectable tumors. […]

[6] = test system: OMP-C28 tumors; assay: Flow cytometry of ESA and CD44 on cells of treated OMP-C28 tumors; type: in vivo, NOD/SCID mice; conditions: tumors harvested day 48; control antibody 64%
Method: Control and treated tumors from the OMP-C28 xenograft study described above (Example 7) were harvested at the end of the study (day 48). The tumors were processed and dissociated into single cells. Tumor cells were then incubated with biotinylated mouse antibodies (α-mouse CD45-biotin 1:200 dilution and rat α-mouse H2 Kd-biotin 1:100 dilution, BioLegend, San Diego, Calif.) on ice for 30 min followed by addition of streptavidin-labeled magnetic beads (Invitrogen, Carlsbad, Calif.) to remove mouse cells with the aid of a magnet.
For analysis of cell surface markers, the single tumor cell suspension was stained with anti-ESA (Biomeda) and anti-CD44 (BD Biosciences) antibodies which were directly conjugated to fluorochromes. Dead cells were excluded by using the viability dye DAPI. Flow cytometry was performed using a FACS Aria (Becton Dickinson). Side scatter and forward scatter profiles were used to eliminate cell clumps.

T3 sequence (Q14332 24-565): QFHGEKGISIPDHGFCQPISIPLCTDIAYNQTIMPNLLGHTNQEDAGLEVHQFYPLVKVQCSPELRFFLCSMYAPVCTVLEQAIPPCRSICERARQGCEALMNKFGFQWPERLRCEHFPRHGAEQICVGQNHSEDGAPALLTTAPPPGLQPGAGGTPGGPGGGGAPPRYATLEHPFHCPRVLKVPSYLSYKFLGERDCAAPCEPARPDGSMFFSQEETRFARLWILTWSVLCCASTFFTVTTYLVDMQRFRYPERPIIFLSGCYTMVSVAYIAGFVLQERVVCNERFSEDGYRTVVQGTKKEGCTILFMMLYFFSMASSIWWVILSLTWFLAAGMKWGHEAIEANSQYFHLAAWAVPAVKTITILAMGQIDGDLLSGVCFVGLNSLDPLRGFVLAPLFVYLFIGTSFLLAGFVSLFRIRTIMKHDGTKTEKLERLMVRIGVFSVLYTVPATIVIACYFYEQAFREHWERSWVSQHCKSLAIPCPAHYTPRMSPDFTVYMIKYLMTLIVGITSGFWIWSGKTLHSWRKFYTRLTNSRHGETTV
T2 sequence (Q9UP38 70-647): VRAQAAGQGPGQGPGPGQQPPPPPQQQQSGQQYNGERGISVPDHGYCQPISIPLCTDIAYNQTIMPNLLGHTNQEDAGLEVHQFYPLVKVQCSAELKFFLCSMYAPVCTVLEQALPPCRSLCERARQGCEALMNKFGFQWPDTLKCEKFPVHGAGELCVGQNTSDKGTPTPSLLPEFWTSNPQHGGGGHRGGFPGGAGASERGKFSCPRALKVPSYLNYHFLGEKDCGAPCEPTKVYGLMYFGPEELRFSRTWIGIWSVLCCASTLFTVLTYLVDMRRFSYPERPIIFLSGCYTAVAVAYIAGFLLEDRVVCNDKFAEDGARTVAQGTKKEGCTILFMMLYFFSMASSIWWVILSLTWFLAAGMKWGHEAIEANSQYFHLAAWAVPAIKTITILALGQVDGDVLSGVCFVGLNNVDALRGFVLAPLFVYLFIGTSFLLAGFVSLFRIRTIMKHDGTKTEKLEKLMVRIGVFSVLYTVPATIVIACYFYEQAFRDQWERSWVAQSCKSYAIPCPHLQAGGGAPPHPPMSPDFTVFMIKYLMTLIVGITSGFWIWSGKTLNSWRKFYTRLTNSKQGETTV

EC50 [1]: 0.58 nM | EC50 [2]: 0.41 nM | EC50 [3]: 0.62 nM | pKd [4]: 8.74
Compound: 18R5: human anti-FZD antibody; VH SEQ ID NO:10 (as 18R8), VL SEQ ID NO:14; binds FZD1, 2, 5, 7, 8

Compound: Nc1ccn([C@@H]2O[C@H](CO)[C@@H](O)C2(F)F)c(=O)n1 [gemcitabine, reference compound]
cancer stem cell frequency [5]: had no effect

Compound: CCc1c2c(nc3ccc(OC(=O)N4CCC(N5CCCCC5)CC4)cc13)-c1cc3c(c(=O)n1C2)COC(=O)[C@]3(O)CC [irinotecan, reference compound]
bulk tumor population expressing both ESA and CD44 at high levels (double positive) [6]: 55%
